Test system: K4 kissing-loop RNA reporter
Assay: apparent KD of K4 kissing-loop reporter; higher = weaker reporter binding
Conditions: Eterna round: R107
Protocol: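 RNA-MaP round R107: designed RNA switches with theophylline, tryptophan, arginine or FMN aptamers are transcribed on-chip within common flanks. They are titrated with a labelled K4 kissing-loop RNA reporter in RNA-MaP buffer (100 mM Tris pH 7.5, 80 mM KCl, 4 mM MgCl2), without ligand or with the indicated ligand. Median apparent KD per design.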

[1] = input ligand: theophylline 20 uM
[2] = input ligand: tryptophan 2.4 mM
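Further: bound reporter read as fluorescence of individual clusters on recovered sequencing chips by microscopy, with normalized cluster intensities fitted with a binding model.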

| Sequence | apparent KD of K4 kissing-loop reporter (input ligand: FMN 200 uM) [µM] | apparent KD of K4 kissing-loop reporter (input ligand: arginine 13.2 mM) [µM] | apparent KD of K4 kissing-loop reporter (input ligand: none) [µM] | apparent KD of K4 kissing-loop reporter [1] [µM] | apparent KD of K4 kissing-loop reporter [2] [µM] |
| --- | --- | --- | --- | --- | --- |
| UGUCAUUGGUCGGCCGCCACUUCGUAUGAAGUGAUGUUUUGUAGAUUGUGUUGAAAGGUGUGGUGAAGGACCGGGACCGAUGACU [FiskerMod 23 - Jieux - Same State - Tryptophan B] | 0.898 | 0.623 | 1.01 | 1.05 | 0.769 |
| ACCUAGUAGACAGGAUAUCACGAUGACAGUGAUGUUGUCAUCAUCGAUUUGAGGAAACUCAGAUCGUGAGAAGGGUCUAACGACU [FMN B SS t7a] | 0.147 | 0.173 | 0.204 | 0.168 | 0.19 |
| UCGAUCGCUAGUGAUGUUGGUGUGCUACAUCGAGGACCGGUACGGCCGCCACUCGAGCCCGAGUAGAAGGGUGGGCUGCUAUGAA [theeternabot_sameState_KL_Trp_A_18] | 1.51 | 1.03 | 1.19 | 0.743 | 0.895 |
| GCGUGGCAGGCGGCCGCCACUCGGACGAGUCACAGUGAUGUUGUGGUUUGCCAGUCGUCUUCAUCGAGGACCGGGUUUGUUGCGC [Exclusion Tryptophan B GF 18] | 0.206 | 0.169 | 0.212 | 0.159 | 0.171 |
| GCCGCCGCGGCAGGAUAUAGACAUUGAGUGAUGUUCGGUGCUUAUCCAAAGUGCUGUUUCGGCCAACUAGAAGGGCCGCGGCGGC | 0.204 | 0.094 | 0.119 | 0.103 | 0.119 |
| AGUGUUGUAUGGCGGUUUGUCACUUAGGAUCAGGAUAUAUAAACAAAUAGAAGGGAUGGCGGAGUGAUGUUCCGCCGGCCGCCAU [FMN A Exl V7] | 0.132 | 0.128 | 0.121 | 0.126 | 0.121 |
| AUGUCUUAUAAACUCAUGGUUUCGAUCGAUACCAGUAGCGAGAGUUACCCUUGGCAGCGACAUGAGUGAUGUUCAUGUACGAAGA [KL-XTheoA5] | 0.109 | 0.0987 | 0.103 | 0.106 | 0.09 |
| GUGUAACGAGGAAACCUCGUUACACCCUCACGAGGACCGGUACGGCCGCCACUCGAGAGCUCGUGAGGAGUGAUGUUCCUCGUGA | 0.695 | 0.335 | 0.441 | 0.435 | 0.184 |
| AGUUAUGUAUCAGGAUAUUAGUGAUGUUUGUUUAUGUUAGUGAUGUUGAUAUUUGUUUUAUGUAUUUAAGAAGGGAUUGAGAUGU [ccgcmullin] | 0.0571 | 0.0207 | 0.048 | 0.0306 | 0.0466 |
| GCCGUACGCAUGGAUACCAGUUGCGAAGUGAUGUUUCGGGCGAUCAAAGGAUCGCCCAACAACCCUUGGCAGCCAUGCGUACGGC | 0.216 | 0.0425 | 0.119 | 0.108 | 0.133 |
| AAUAAUAUACAAAGGCGAACGAAUAGGGAAGGAGCGCGAUAUAACGCAGGUAGGUCGCCCAUAUUUUUAGUGAUGUUAGAGAAUA [E. Arginine A Tesla 1] | 0.938 | 0.762 | 0.766 | 0.92 | 0.757 |
| GCGCGUCAUGUCAGCGGUGACUCUGUCGAUACCAGCGCCGCAAGGCGCCCUUGGCAGCGACGCGCUGGAGUGAUGUUCCAGCGUG [#2 Exclusion - Theophylline A Attempt #13 (HarryS)] | 0.157 | 0.142 | 0.16 | 0.15 | 0.145 |
| AUUUUUUUAUCAGGAUAUUAGUGUUGGUUUGUUUUGUUAGUGAUGUUGAUAUUUGUUUUAUGUAUUUAAGAAGGGAUUGAGAUGU [huupullin] | 0.283 | 0.254 | 0.278 | 0.395 | 0.211 |
| AACCUACGAUCACAAUAGUGAUUGUAGGACUAGGAUAUGCUGAAAAGCAGAAGGAGUGAUGUUCCACUCAUGAAUAACAUGAGAA [FmnAX 4 #OpenEnded #K4Late #CoaxialStacking] | 0.594 | 0.34 | 0.41 | 0.324 | 0.27 |
| GCCGUACGCAUGGAUACCAGCAAUAUGCUACGUUGUAGUAGUAUAACCAGUGAUGUUGGAUGCCCUUGGCAGCCAUGCGUACGGC | 0.736 | 0.673 | 0.897 | 0.349 | 0.855 |
| GGAGGAGAAUAUGAUACCAGCAGAGAGAGAGAGGAAGUAUAGUGAUGUUAUAUGUGAGAAUGCCCUUGGCAGCAUAAGAAGAAGG [whbob_SS_Theo_B_sa87] | 0.14 | 0.147 | 0.156 | 0.17 | 0.132 |
| UAGGAGUGAUGUUCCAUAUGUAAGGCCGAAGGAGCGGCAUUAUAGCCAGGUAGGUCGCGGCAGUACGUACCAGUGAUGUUGGAAA [KL-SSArg-A5] | 0.173 | 0.0949 | 0.15 | 0.119 | 0.116 |
| CGUACGGUUUCUUUCUUUCCGUACGAGUGCCGAGGACCGGUACGGCCGCCACUCGCUACAGCCUAGUGAUGUUAGGCGAUUCUUU | 0.129 | 0.117 | 0.125 | 0.163 | 0.102 |
| CCUUUCUGUUACGAUACCAGUCUAAUAUAUUUGAUCAAUACCCUCGCCGAGUGAUGUUCGGACCCUUGGCAGCGUCUGGGACAGG [aazwmullin] | 0.482 | 0.438 | 0.493 | 0.468 | 0.451 |
| GCUAUGGUUGGAAGGAGCGUUGAAUUGUUGGUAAGAGUGAUGUUCGAUAGUGGAUAGUUGUAGCAGGUAGGUCGCCAACUAUAGC [KL-Arg B27] | 0.377 | 0.367 | 0.532 | 0.517 | 0.395 |
| UGGAUAUAGUGAUGUUAUAUAGAGAUGGAUACCAGCUAAGAGAAUAGCCCUUGGCAGCCGAAAGAAGUAUCAUUAGAGAAGAAUG [ExTheophyl.Ae] | 0.294 | 0.231 | 0.28 | 0.253 | 0.212 |
| AAGCAGUCAGGAUCGAAGAUCCUGCAAAACCGAGGACCGGUACGGCCGCCACUCGGAGUGAUGUUCCGAAGACUGCAAAAUAAAA [#SwitchBubble 6] | 0.191 | 0.152 | 0.213 | 0.15 | 0.0645 |

| Sequence | apparent KD of K4 kissing-loop reporter (input ligand: FMN 200 uM) [µM] | apparent KD of K4 kissing-loop reporter (input ligand: arginine 13.2 mM) [µM] | apparent KD of K4 kissing-loop reporter (input ligand: none) [µM] | apparent KD of K4 kissing-loop reporter [1] [µM] | apparent KD of K4 kissing-loop reporter [2] [µM] |
| --- | --- | --- | --- | --- | --- |
| GAUUUAGAGGCGGCCGCCACUAGUGAUGUUAGUGAUGUUUGAUACUGAAUAUAUCUGCGUGUAGAUAGGACCGGGCCAGAUGGAG [eyerullin] | 0.21 | 0.171 | 0.186 | 0.184 | 0.18 |
| GAGGUAUGCGCAGUGAUGUUGCGACGAGAUACCAGUCGUUCUGUCGACCCUUGGCAGCUCCCACCAGACGUACGAGUUUGUGUUG [theeternabot_sameState_KL_Theo_A_10] | 0.114 | 0.111 | 0.113 | 0.113 | 0.0995 |
| CGCGUACAGUGUUCUACGGCCGAGAGUGAUACCAGCCGUAUUUGUGGCCCUUGGCAGCGCAGAUGCAGUGAUGUUGCAUACUUGG [Same State Theophylline A GF 21] | 0.0986 | 0.139 | 0.135 | 0.149 | 0.0854 |
| CUGUCAUGGGAUGGGCCAGUGAUGUUGGGCCGAGGACCGGUACGGCCGCCACUCGUAGCACAGUGCGCGCUAGCAUUGUACGUCA [theeternabot_exclusion_KL_Trp_A_35] | 1.26 | 0.629 | 0.977 | 0.808 | 0.456 |
| AACCGUGUGGCGGCCGCCACUAGUCUCCAGUGAUGUUGGAGAGACCACGUAAGUGGUCUCCAACAUAGGACCGGGCCAUAUGGAA [Same State - Tryptophan B (Freestyle 26)] | 0.204 | 0.0785 | 0.106 | 0.132 | 0.259 |
| UAUGUACACGGGUAGUGAUACAUCGAGGAAGGAGCGUGCGCAGGCACAGGUAGGUCGCCUCAGCGCACGAGUGAUGUUCGUGGGC [Veti] | 0.471 | 0.325 | 0.393 | 0.38 | 0.376 |
| UGUAUGUGAUUUGAUACCAGACCAGCUGGUGUUUCAAGAGUGAUGUUCUUGUAGGUUUGGGUCCCUUGGCAGCAAAUCGCAUACU [KL-SSTheoB15] | 0.159 | 0.122 | 0.152 | 0.122 | 0.131 |
| UGUCAUUGGUCUGAUACCAGUUGAUGACGAAUACGUCAACUGGAGUGAUGUUCCAAUAACAACCCUUGGCAGCAGACCGAUGACU [MAT - Same State Theophlline B - Mod of Eli - D3] | 0.557 | 0.494 | 0.53 | 0.953 | 0.563 |
| GCAGGCGUAAAAGGAUAUCAGGCUCUCUAGACACGAGUGAUGUUUGUGUAGGUAACGUAAUAGGCAUGAGAAGGUUUCACUUAAA [theeternabot_sameState_KL_FMN_B_49] | 0.608 | 0.43 | 0.547 | 0.524 | 0.416 |
| AGGUUUUGAUUAGGAUAUGCACUGACGACGAGAAUAUAGUGAUGUUAUAUACUACGAAUUAGUAGAGUAGAAGGGAUUGAGGUUU [SSFMNB.Y] | 0.344 | 0.265 | 0.33 | 0.322 | 0.245 |
| UGCGCUGUGUCCUAAAAUGUCCUCCGGGAUACCAGAGUCUUUUUAUUCCCUUGGCAGCUUGAGUGAUGUUUGAUGCCGUUCUUGU [xxbxymullin] | 0.811 | 0.478 | 0.79 | 0.519 | 0.607 |
| AAGUCAUAUAGAAGGAGCGUGUUUUUUAAUUUAUUUUCAUGAUCGAGUGAUGUUCGAUAUACACAGGUAGGUCGCUGUAUAAUAA [hbob_SS_Arginine_B_2t141] | 0.126 | 0.145 | 0.127 | 0.179 | 0.112 |
| GGUAGCAUGGCGGCCGCCACUUACACCACGGCCCUUCUAGUGAUGUUAGAGUGGAUUAUUCCGUUAAGGACCGGGCCAUGCUACC | 0.629 | 0.43 | 0.745 | 0.65 | 0.273 |
| AACUGGGUUCGUGAUACCAGCUCACACAUGAGUGAUGUUGAUGUAGUGGGCAAAAUGUGGAGCCCUUGGCAGCACUGUGACCACG [XTheo-B3] | 0.422 | 0.358 | 0.411 | 0.378 | 0.371 |
| AAGGGCGAGGUAACGUGGAUAUCUCGUCGCAAGGAUAUCUGGAAACAGAGAAGGUGCGACAUCACCGGCAGUGAUGUUGCUGGGC | 0.298 | 0.185 | 0.233 | 0.227 | 0.181 |
| UAUAUAGUGACGGCCGCCACUAUAGUAAUGUUUUUGUUAGAGUGAUGUUUUGUUUUUUAAUUUUAUAGGACCGGGUUAUAUGUUA [llpmullin] | 0.36 | 0.218 | 0.374 | 0.376 | 0.24 |
| AAGUCAUACAGAAGGAGCGUGUUUUAUAAUUUAUUUUCAUGAUCGAGUGAUGUUCGAUAUACACAGGUAGGUCGCUGUAUAAUAA [JR_SSArginiB_Sub007] | 0.102 | 0.146 | 0.121 | 0.146 | 0.103 |
| GUUUGCCGGUUCCGGAGUGAUGUUCCGGAUACCAGCAACUUCCUUUGCCCUUGGCAGCCGUAGCUAUACCGGAUGGCAGCUUCAG [Arrexean] | 0.0961 | 0.0827 | 0.0893 | 0.0867 | 0.0954 |
| UCGCGUCUGUGAGGAUAUCAGAACAGAGUGAUGUUCUGUCAACGCCCAGUGAUGUUGGAUGCGAUCUGAGAAGGCACUGGGCGCA [Same State FMN B GF 9] | 1.06 | 0.865 | 1.32 | 1.7 | 1.16 |
| AUUAUAUUGUGAAGGAGCGCGCAUAGUAGUGAUGUUACUAUGACAUAUCUUAUUUAAUUCUCGCAGGUAGGUCGCACAUUAUAUA [JR_Nu_ExcArginiB_Sub026] | 0.0925 | 0.0648 | 0.0797 | 0.0655 | 0.0718 |
| AUUAUAUAGGCGGCCGCCACUAGUGAUGUUAGUGAUGUCAUAAUAUAAUGAUAAAUUAUAUUGCGUAGGACCGGGCCUAAAUAUU [#15 K4 Tryptophan B Exclusion] | 0.108 | 0.0623 | 0.0863 | 0.1 | 0.111 |
| AAAAUAAUCCAGUGAUGUUGGUAUUCAGAUACCAGCGACGAAAGUCGCCCUUGGCAGCUGUGGACGUACAAAAUAAGUACGUCCU | 0.967 | 0.657 | 1.06 | 0.944 | 0.66 |

Source: the supplement of paper PMC9170038
